The results in this text go back to patent US20190263934A1.

In experiment [1] the target is biotinylated hFcRn (human) (UniProt P55899). The experiment is described as follows: Biacore SPR, pH 7.4, single antibody concentration, steady state. Background: SPR reads the build-up and loss of mass on a sensor chip optically.
The target of experiment [2] is rFcRn (rat) (UniProt P13599). The description is as above.
In experiment [3] the target is biotinylated hFcRn (human) (UniProt P55899). Description: Biacore SPR, pH 6.0, bivalent fit.
The target in experiment [4] is rFcRn (rat) (UniProt P13599). The experiment is described as follows: Biacore SPR, pH 6.0, bivalent fit.
Experiment [5] addresses Human CD16a (FcγRIIIa) V158 with C-terminal HPC4 tag (human) (UniProt P08637). Description: Biacore SPR, captured HPC4-tagged FcγRIIIa-V158, steady-state fit.
In experiment [6] the target is biotinylated human FcRn (hFcRn; p51 subunit residues 24-297 with C-terminal Avi-tag, β2-m residues 21-119) (human) (UniProt P55899). The experiment is described as follows: Biacore SPR; pH 6.0 affinity (M^-1) over pH 7.4 steady state RU.
Sequence of biotinylated human FcRn (hFcRn; p51 subunit residues 24-297 with C-terminal Avi-tag, β2-m residues 21-119) (human) (P55899 24-297, form in doubt, chain 1 of 2): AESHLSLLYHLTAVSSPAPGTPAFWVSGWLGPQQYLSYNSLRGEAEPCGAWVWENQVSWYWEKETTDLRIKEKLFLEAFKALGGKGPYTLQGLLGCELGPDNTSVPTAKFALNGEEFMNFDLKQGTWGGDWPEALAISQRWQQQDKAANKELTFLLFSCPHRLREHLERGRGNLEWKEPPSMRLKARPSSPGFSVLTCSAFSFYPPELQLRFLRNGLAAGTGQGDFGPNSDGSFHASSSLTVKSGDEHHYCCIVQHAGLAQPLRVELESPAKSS
Sequence of biotinylated human FcRn (hFcRn; p51 subunit residues 24-297 with C-terminal Avi-tag, β2-m residues 21-119) (human) (P61769 21-119, form in doubt, chain 2 of 2, further chain): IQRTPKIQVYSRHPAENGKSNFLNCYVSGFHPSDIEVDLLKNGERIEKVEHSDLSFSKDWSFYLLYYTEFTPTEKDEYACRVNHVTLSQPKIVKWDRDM
Experiment [7] shares this target. Description: Biacore SPR, Biotin CAPture of biotinylated human FcRn, pH 6.0.
Experiment [8] shares this target. The experiment is described as follows: Biacore SPR, pH 7.4, steady state, 1000 nM antibody.
For experiment [9] the target is unchanged. The experiment is described as follows: Biacore SPR, Biotin CAPture, pH 7.4, 1000 nM antibody, steady state.
The target is the same in experiment [10]. Description: Biacore SPR; second ratio column (inverse of c7).
Experiment [11] shares this target. The experiment is described as follows: Biacore SPR, pH 6.0, apparent affinity.
Experiment [12] shares this target. Description: Biacore SPR, human FcRn, pH 7.4, steady state.

Sequence of rFcRn (rat) (P13599 23-298, form in doubt, chain 1 of 2): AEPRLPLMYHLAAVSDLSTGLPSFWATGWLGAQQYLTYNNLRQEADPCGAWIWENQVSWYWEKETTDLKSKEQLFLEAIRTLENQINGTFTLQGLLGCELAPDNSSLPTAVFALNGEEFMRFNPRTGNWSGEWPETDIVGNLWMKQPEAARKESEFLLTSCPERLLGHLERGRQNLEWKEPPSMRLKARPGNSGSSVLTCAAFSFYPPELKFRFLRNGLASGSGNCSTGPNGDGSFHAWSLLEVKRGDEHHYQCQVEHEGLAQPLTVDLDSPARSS
Sequence of rFcRn (rat) (P07151 21-119, form in doubt, chain 2 of 2, further chain): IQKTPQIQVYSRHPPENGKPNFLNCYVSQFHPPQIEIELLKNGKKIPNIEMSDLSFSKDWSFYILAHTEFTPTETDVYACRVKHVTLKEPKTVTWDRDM
Sequence of Human CD16a (FcγRIIIa) V158 with C-terminal HPC4 tag (human) (P08637 17-208 F176V): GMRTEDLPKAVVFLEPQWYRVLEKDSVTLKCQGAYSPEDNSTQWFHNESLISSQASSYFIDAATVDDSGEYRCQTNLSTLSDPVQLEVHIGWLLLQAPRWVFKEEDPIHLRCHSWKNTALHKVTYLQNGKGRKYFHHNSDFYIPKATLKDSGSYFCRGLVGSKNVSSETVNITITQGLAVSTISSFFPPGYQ
Sequence of biotinylated hFcRn (human) (P55899 24-297, form in doubt, chain 1 of 2): as the sequence (P55899 24-297, form in doubt, chain 1 of 2) above
Sequence of biotinylated hFcRn (human) (P61769 21-119, form in doubt, chain 2 of 2, further chain): as the sequence (P61769 21-119, form in doubt, chain 2 of 2, further chain) above

mAb1 MDQN (T256D/T307Q) (antibody): the Steady State RU (pH 7.4) is 10.7 RU in experiment [1] and 39.1 RU in experiment [2]. In addition, the figures for the Kd in [3], in experiment [4] and in [5] were 232 nM, 9.5 nM and 600 nM, respectively. Besides, the on-rate (kon) (commonly the rate constant with which the complex forms) in experiment [3] amounted to 38000 M⁻¹ s⁻¹; in experiment [4] it was 13000 M⁻¹ s⁻¹. In experiment [4], the koff (usually a measure of how fast the partners let go of each other) was determined as 0.0013 s⁻¹.

With mAb1 MDWN (T256D/T307W) (antibody), the Steady State RU (pH 7.4) in experiment [1] is 12.2 RU; in experiment [2], 42.1 RU. The Kd in experiment [3] was 169 nM; in [4] it was 8.2 nM; in experiment [5], 512 nM. Further, the values for the kon in [3] and in [4] were 53000 M⁻¹ s⁻¹ and 16000 M⁻¹ s⁻¹, respectively. Moreover, the koff in experiment [4] was found to be 0.0013 s⁻¹.

For “mAb1 MDWY variant (T256D/T307W/N434Y) (antibody)”, in [6], the Ratio (pH 6.0/pH 7.4) turned out to be 1.42e+06. Further, the Kd in experiment [7] amounted to 18.1 nM. The Steady State Binding, pH 7.4 (RU) in experiment [8] worked out at 59 RU. This substance also came in with a pH 7.4 RU in experiment [9] of 59.8 RU. Moreover, the Ratio (pH 7.4/pH 6.0) in [10] worked out at 7.02e-07. In addition, in experiment [11], the Ka was determined as 8.4e+07 M⁻¹.

As for “mAb1 YDQN (M252Y/T256D/T307Q) (antibody)”, the Steady State RU (pH 7.4) was 19.8 RU in experiment [1] and 65.2 RU in experiment [2]. The Kd in [3] worked out at 115 nM; in [4], 5.1 nM; in experiment [5], 1060 nM. Further, the koff in experiment [3] is 0.28 s⁻¹; in experiment [4] it was 0.0003 s⁻¹. Also, the figures for the kon in [3] and in experiment [4] were 25000 M⁻¹ s⁻¹ and 5000 M⁻¹ s⁻¹, respectively.

Regarding “mAb1 YEQN (M252Y/T256E/T307Q) (antibody)”, the results for the Steady State RU (pH 7.4) in experiment [1] and in experiment [2] were 15.2 RU and 61.8 RU, respectively. Besides, the figures for the Kd in experiment [3], in experiment [4] and in experiment [5] were 218 nM, 7.8 nM and 1620 nM, respectively. The dissociation rate constant (koff) in [3] turned out to be 0.41 s⁻¹; in [4], 0.0004 s⁻¹. For the same substance, the values for the kon in experiment [3] and in experiment [4] were 19000 M⁻¹ s⁻¹ and 5000 M⁻¹ s⁻¹, respectively.

Consider mAb1 YETN (M252Y/T256E) (antibody), for which the results for the Steady State RU (pH 7.4) in experiment [1] and in [2] were 9.8 RU and 55.1 RU, respectively. Moreover, the Kd in experiment [3] worked out at 128 nM; in experiment [4], 8.4 nM; in [5], 878 nM. For the same substance, the results for the kon in experiment [3] and in experiment [4] were 59000 M⁻¹ s⁻¹ and 32000 M⁻¹ s⁻¹, respectively. Besides, the off-rate (koff) in [4] is 0.0027 s⁻¹.

As to “mAb1 YEWY variant (M252Y/T256E/T307W/N434Y) (antibody)”, the Steady State RU (pH 7.4) in experiment [12] is 98.2 RU. The substance further yielded a pH 7.4 RU in experiment [9] of 98.2 RU.

mAb1 YTE (M252Y/S254T/T256E) (antibody): the Steady State RU (pH 7.4) in experiment [1] amounted to 13.2 RU; in experiment [2] it was 53.9 RU. Besides, the Kd worked out at 342 nM in experiment [3], 18 nM in experiment [4] and 1040 nM in experiment [5]. Besides, the koff is 0.05 s⁻¹ in experiment [3] and 0.0012 s⁻¹ in [4]. Further, the results for the kon in experiment [3] and in experiment [4] were 143000 M⁻¹ s⁻¹ and 65000 M⁻¹ s⁻¹, respectively.

“mAb1 YTTY variant (M252Y/N434Y) (antibody)”: the Ratio (pH 6.0/pH 7.4) in experiment [6] came out at 2.22e+06. The Kd in [7] stood at 22.9 nM. Moreover, the Steady State Binding, pH 7.4 (RU) in experiment [8] is 54.1 RU. The same substance gave a pH 7.4 RU in experiment [9] of 54.4 RU. The Ratio (pH 7.4 RU / pH 6.0 affinity) in experiment [10] came out at 4.51e-07. In addition, in [11], the Ka amounted to 1.2e+08 M⁻¹.

For mAb1 YTWN (M252Y/T307W) (antibody), the Steady State RU (pH 7.4) is 15.9 RU in experiment [1] and 66.1 RU in experiment [2]. The Kd was determined as 118 nM in experiment [3], 5.2 nM in experiment [4] and 896 nM in [5]. Moreover, the association rate constant (kon) in [3] is 48000 M⁻¹ s⁻¹; in experiment [4] it was 21000 M⁻¹ s⁻¹. For the same substance, in experiment [4], the koff is 0.0011 s⁻¹.
